Assay [1] concerns the target MMsHsp (sHsp of Methanococcus maripaludis) (Methanococcus maripaludis). Kind of assay: AUC; sedimentation velocity at 40 °C, 0.1 mg/mL, 40,000 rpm, Rayleigh interference optics, c(s20,w) with SEDFIT; oligomers of one protein.
For assay [2] the target is unchanged. Briefly: AUC; sedimentation velocity at 40 °C, 1.0 mg/mL, 40,000 rpm, Rayleigh interference optics, c(s20,w) with SEDFIT; oligomers of one protein.

In assay [1], “MMsHsp (sHsp of Methanococcus maripaludis) (natural protein)” showed a w, weight fraction of peak a (N 2) of 31.3%; a w, weight fraction of peak b (N 8) of 4.2%; a w, weight fraction of peak c (N 18) of 10.9%; a w, weight fraction of peak d (N 24) of 53.6%. In assay [2], the stoichiometry N (in general, the number of molecules, sites or subunits per partner or assembly) came to 16; the w, weight fraction of peak a (N 2) came to 16.8%; the w, weight fraction of peak b (N 8) was determined as 4.6%; the w, weight fraction of peak c (N 17) was found to be 5.3%. The same substance returned a w, weight fraction of peak d (N 24) in assay [2] of 73.3%.

The values are drawn from paper PMC12193508.
